The values that follow come from publication PMC5700101.

This assay concerns the target PBD–GFP (PBD of Polo, amino acids 350–576, C-terminally fused to GFP10) (UniProt P52304). Kind of assay: BRET. The following applies: live HEK293T cells; fixed amount of Luc-KD vector, increasing PBD–GFP vector; Map205 fragment co-transfected; p-value < 0.0001; parent: 0.197. Background: BRET reads energy transfer from a luciferase to a nearby fluorophore.

For the substance “Luc-KD (KD–IDL of Polo, amino acids 1–349, N-terminally fused to RLucII), KD^WT (from UniProt P52304) NLS7A”, the other: BRET50 is 2.49 GFP/Luc.
